Measured values published in the nanobody polyreactivity screen of Harvey et al. (2022).

Experiment: yeast display, Sf9 membrane polyspecificity reagent, FACS + sequencing; frameworks hold sequencing errors
Procedure, shortened: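 Nanobodies from a synthetic yeast display library (Saccharomyces cerevisiae BJ5465), induced 36–48 hours with galactose, were stained 1 hour at 4 °C with 10% biotinylated, detergent-solubilized Sf9 membrane reagent, enriched on streptavidin microbeads, then FACS-sorted. Anti-HA (expression) and streptavidin (reagent binding) fluorescence set low and high (top ~1%) gates. Polyreactivity labels come from the gate of origin. Genes were colony-PCR amplified, MiSeq 2 × 250 sequenced and filtered by CDR length.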

Row | Sequence | polyreactivity (PSR sort gate)
1 | QVQLVESGGALVQAGGSLRLSCAASGIILYYYAMGWYRQAPGKERELVAAISSGGNTYYADSVKGRFTISRDNAKNTVYLQMNSLKPEDTAVYYCAAVTVIGGEYDYWGQGTQVTVSS | low polyreactivity
2 | QVQLVESGGALVQAGGSLRLSCAASGITFYDNAMGWYRQAPGKERELVAGISYSGGRTYYADSVKGRFTISRDNAKNTVYLQMNSLIPEDTAVDYCNARFGKYRSRQGYYYWGQGTQVTVSS | high polyreactivity
3 | QVQLVESGGALVQAGGSLRLSCAASGITFYFYAMGWYIHAPGKEWELVAAIRSSGDSTYYADSVKGRFTISRDNAKNTVYLQMNSRKPEDTAVYYCAAYSHHQFSRSEYYYWGQGTQVTVSS | low polyreactivity
4 | QVQLVESGGALVQAGGSLRLSCAASGLIFTAYAMGWYRQAPGKERELVAAIDWRGGSTSYADSVKGRFTISRDTAKNTVYLQMNSLKPEDTAVYYCAADYYSKYVRFGYWGQGTQVTVSS | high polyreactivity
5 | QVQLVESGGALVQAGGSLRLSCAASGRIFGGYAMGWYRQAPGTERELVAAISSGGRTYYADSVKGRFTISRDNAKNTVYLQMNSLKPEDTAVYYCNAYTRGFRLGYWGQGTQVTVSS | high polyreactivity
6 | QVQLVESGGALVQAGGSLRLSCAASGRIFYKYVMGWYRQAPGKERELVATITSGGSTYYADSVKWRFTISRDNAKNTVYLQMNSLKPEDTAVYYCAARKYYSRAYDYWGQGTQVTVSS | high polyreactivity
7 | QVQLVESGGALVQAGGSLRLSCAASGRTFNYNAMGWYRQAPGKERELVAAITSGASTNYADSVKGRFTISRDNAKNTVYLQMNSLKPEDTAVYYCNAEGYVYYLQEDYWGQGTQVNVSS | low polyreactivity
8 | QVQLVESGGALVQAGGSLRLSCAASGRTFNYYAKGWSRQAPGKERELVAAITNGVSTKYADSVKGRFTISRDNAKNTVYLQMNSLKPEDTAVYYCAAQRLYGYRLYNYWGQGTQVTVSS | high polyreactivity
9 | QVQLVESGGALVQAGGSLRLSCAASGRTFYSYAMGWYRQAPGKERELVAAINRGASTYYADSVKGRFTISRDNAKNTDYFQMKSLKPEDTAFYYCGARLYGRHYGYWGQGTQVTVSS | high polyreactivity
10 | QVQLVESGGALVQAGGSLRLSCAASGSIFKKYAMGWYRPAPGKERELVAAITRGTYYADSVKGRFTISRVNAKNTVYLQMNSLKPEDTAVYYCNREYWGRGYYRVRGEYDYWGQGTQFTVSS | low polyreactivity
11 | QVQLVESGGALVQAGGSLRLSCAASGSIFPANPMGWYRQAPGKEWEFVAAINWSTGTTYYADSVKGRFTISRDNGKNTVYLQMNSLKPEDTAVYYFNASDQAKYDYWGQGTQVTVSS | low polyreactivity
12 | QVQLVESGGALVQAGGSLRLSCAASGSIFRWTAMGWYRQAPGKERVLVAAISKSGASTYYADSVKGRFTISRDNAKNTVYLQMNSLKPEDTAVYYCNRVYLGYFRYDYWGQGTQVTVSS | high polyreactivity
13 | QVQLVESGGALVQAGGSLRLSCAASGSIFSEYAMGWYRQAPGKERELVAAISRSGGTTYYADSVKGRFTISRDNAKNTVYLQMNSLKPEDTAVYYCAARYFRGSYPMGYWGQGTQVTVSS | high polyreactivity
14 | QVQLVESGGALVQAGGSLRLSCAASGSIFSSYAMGWYRQAPGKERELVAAISGSGDSTYYADSVKGRFTISRDNAKNTVYLQMNSLKPEDTAVYYCNAVYAFNGYDYWGQGTQVTVSS | low polyreactivity
15 | QVQLVESGGALVQAGGSLRLSCAASGSTFSYNAMGWYSQAPGKERELVAAISSRGSSTYYADSVKGRFTISRDNAKNTVYFQINSLKPEDTAVYDCAARSYWGGLRYDYWGQGTQVTVSS | high polyreactivity
16 | QVQLVESGGALVQAGGSLRLSCAASGSTVKYYAMGWYRQAPGKERELVATSSSGGSTNYADSVKRRFTISRDNAKNTVYLQRNSLKPEDTAVYYCAAYSTWRRIQFWGYNYWGQGTQVTVSS | high polyreactivity
17 | QVQLVESGGALVQAGGSLRLSSAASVSIFTINAMGWYRQAPGKERELVAAISWSGAHTYYADSVKGRFTISRDNAKNTVYVQMNSLKPEDTAVYYCATGYNYLDRNTGYVHRFDYWGQGTQVTVSS | low polyreactivity
